According to PMC5717138:

Columns and labels:
[1] = denaturing Flag IP, anti-HA-Ub and anti-K48-Ub blot; conditions: glycan lost; control: wild type
[2] = in vitro ubiquitination of E. coli-purified His-Polη; conditions: control: WT His-Polη without OGT co-expression
[3] = GFP-Polη foci, U2OS, 8 h post-UVC; conditions: glycan lost; control: wild type
[4] = GFP-Polη foci, U2OS, 24 h post-UVC; conditions: glycan lost; control: wild type

B1: DNA polymerase η (Polη): 3A (protein)
parent chain: MATGQDRVVALVDMDCFFVQVEQRQNPHLRNKPCAVVQYKSWKGGGIIAVSYEARAFGVTRSMWADDAKKLCPDLLLAQVRESRGKANLTKYREASVEVMEIMSRFAVIERASIDEAYVDLTSAVQERLQKLQGQPISADLLPSTYIEGLPQGPTTAEETVQKEGMRKQGLFQWLDSLQIDNLTSPDLQLTVGAVIVEEMRAAIERETGFQCSAGISHNKVLAKLACGLNKPNRQTLVSHGSVPQLFSQMPIRKIRSLGGKLGASVIEILGIEYMGELTQFTESQLQSHFGEKNGSWLYAMCRGIEHDPVKPRQLPKTIGCSKNFPGKTALATREQVQWWLLQLAQELEERLTKDRNDNDRVATQLVVSIRVQGDKRLSSLRRCCALTRYDAHKMSHDAFTVIKNCNTSGIQTEWSPPLTMLFLCATKFSASAPSSSTDITSFLSSDPSSLPKVPVTSSEAKTQGSGPAVTATKKATTSLESFFQKAAERQKVKEASLSSLTAPTQAPMSNSPSKPSLPFQTSQSTGTEPFFKQKSLLLKQKQLNNSSVSSPQQNPWSNCKALPNSLPTEYPGCVPVCEGVSKLEESSKATPAEMDLAHNSQSMHASSASKSVLEVTQKATPNPSLLAAEDQVPCEKCGSLVPVWDMPEHMDYHFALELQKSFLQPHSSNPQVVSAVSHQGKRNPKSPLACTNKRPRPEGMQTLESFFKPLTH
In the case of B1, the “other: polyubiquitination” value [1] is reported as “decreases”.

B2: DNA polymerase η (Polη): T457A without OGT (protein)
parent chain: MATGQDRVVALVDMDCFFVQVEQRQNPHLRNKPCAVVQYKSWKGGGIIAVSYEARAFGVTRSMWADDAKKLCPDLLLAQVRESRGKANLTKYREASVEVMEIMSRFAVIERASIDEAYVDLTSAVQERLQKLQGQPISADLLPSTYIEGLPQGPTTAEETVQKEGMRKQGLFQWLDSLQIDNLTSPDLQLTVGAVIVEEMRAAIERETGFQCSAGISHNKVLAKLACGLNKPNRQTLVSHGSVPQLFSQMPIRKIRSLGGKLGASVIEILGIEYMGELTQFTESQLQSHFGEKNGSWLYAMCRGIEHDPVKPRQLPKTIGCSKNFPGKTALATREQVQWWLLQLAQELEERLTKDRNDNDRVATQLVVSIRVQGDKRLSSLRRCCALTRYDAHKMSHDAFTVIKNCNTSGIQTEWSPPLTMLFLCATKFSASAPSSSTDITSFLSSDPSSLPKVPVTSSEAKTQGSGPAVTATKKATTSLESFFQKAAERQKVKEASLSSLTAPTQAPMSNSPSKPSLPFQTSQSTGTEPFFKQKSLLLKQKQLNNSSVSSPQQNPWSNCKALPNSLPTEYPGCVPVCEGVSKLEESSKATPAEMDLAHNSQSMHASSASKSVLEVTQKATPNPSLLAAEDQVPCEKCGSLVPVWDMPEHMDYHFALELQKSFLQPHSSNPQVVSAVSHQGKRNPKSPLACTNKRPRPEGMQTLESFFKPLTH
With B2 the “other: polyubiquitination” value ([2]; glycan lost) was “no change”.

B3: DNA polymerase η (Polη): GST-OGT co-expression (WT) (protein)
parent chain: MATGQDRVVALVDMDCFFVQVEQRQNPHLRNKPCAVVQYKSWKGGGIIAVSYEARAFGVTRSMWADDAKKLCPDLLLAQVRESRGKANLTKYREASVEVMEIMSRFAVIERASIDEAYVDLTSAVQERLQKLQGQPISADLLPSTYIEGLPQGPTTAEETVQKEGMRKQGLFQWLDSLQIDNLTSPDLQLTVGAVIVEEMRAAIERETGFQCSAGISHNKVLAKLACGLNKPNRQTLVSHGSVPQLFSQMPIRKIRSLGGKLGASVIEILGIEYMGELTQFTESQLQSHFGEKNGSWLYAMCRGIEHDPVKPRQLPKTIGCSKNFPGKTALATREQVQWWLLQLAQELEERLTKDRNDNDRVATQLVVSIRVQGDKRLSSLRRCCALTRYDAHKMSHDAFTVIKNCNTSGIQTEWSPPLTMLFLCATKFSASAPSSSTDITSFLSSDPSSLPKVPVTSSEAKTQGSGPAVTATKKATTSLESFFQKAAERQKVKEASLSSLTAPTQAPMSNSPSKPSLPFQTSQSTGTEPFFKQKSLLLKQKQLNNSSVSSPQQNPWSNCKALPNSLPTEYPGCVPVCEGVSKLEESSKATPAEMDLAHNSQSMHASSASKSVLEVTQKATPNPSLLAAEDQVPCEKCGSLVPVWDMPEHMDYHFALELQKSFLQPHSSNPQVVSAVSHQGKRNPKSPLACTNKRPRPEGMQTLESFFKPLTH
For B3, the “other: polyubiquitination” value ([2]; glycan gained) was “increases”.

B4: DNA polymerase η (Polη): Polη-3A (protein)
parent chain: MATGQDRVVALVDMDCFFVQVEQRQNPHLRNKPCAVVQYKSWKGGGIIAVSYEARAFGVTRSMWADDAKKLCPDLLLAQVRESRGKANLTKYREASVEVMEIMSRFAVIERASIDEAYVDLTSAVQERLQKLQGQPISADLLPSTYIEGLPQGPTTAEETVQKEGMRKQGLFQWLDSLQIDNLTSPDLQLTVGAVIVEEMRAAIERETGFQCSAGISHNKVLAKLACGLNKPNRQTLVSHGSVPQLFSQMPIRKIRSLGGKLGASVIEILGIEYMGELTQFTESQLQSHFGEKNGSWLYAMCRGIEHDPVKPRQLPKTIGCSKNFPGKTALATREQVQWWLLQLAQELEERLTKDRNDNDRVATQLVVSIRVQGDKRLSSLRRCCALTRYDAHKMSHDAFTVIKNCNTSGIQTEWSPPLTMLFLCATKFSASAPSSSTDITSFLSSDPSSLPKVPVTSSEAKTQGSGPAVTATKKATTSLESFFQKAAERQKVKEASLSSLTAPTQAPMSNSPSKPSLPFQTSQSTGTEPFFKQKSLLLKQKQLNNSSVSSPQQNPWSNCKALPNSLPTEYPGCVPVCEGVSKLEESSKATPAEMDLAHNSQSMHASSASKSVLEVTQKATPNPSLLAAEDQVPCEKCGSLVPVWDMPEHMDYHFALELQKSFLQPHSSNPQVVSAVSHQGKRNPKSPLACTNKRPRPEGMQTLESFFKPLTH
In the case of B4, the localisation_or_trafficking [3] is reported as “no change” and the localisation_or_trafficking [4] is reported as “increases”.

B5: DNA polymerase η (Polη): T457D (protein)
parent chain: MATGQDRVVALVDMDCFFVQVEQRQNPHLRNKPCAVVQYKSWKGGGIIAVSYEARAFGVTRSMWADDAKKLCPDLLLAQVRESRGKANLTKYREASVEVMEIMSRFAVIERASIDEAYVDLTSAVQERLQKLQGQPISADLLPSTYIEGLPQGPTTAEETVQKEGMRKQGLFQWLDSLQIDNLTSPDLQLTVGAVIVEEMRAAIERETGFQCSAGISHNKVLAKLACGLNKPNRQTLVSHGSVPQLFSQMPIRKIRSLGGKLGASVIEILGIEYMGELTQFTESQLQSHFGEKNGSWLYAMCRGIEHDPVKPRQLPKTIGCSKNFPGKTALATREQVQWWLLQLAQELEERLTKDRNDNDRVATQLVVSIRVQGDKRLSSLRRCCALTRYDAHKMSHDAFTVIKNCNTSGIQTEWSPPLTMLFLCATKFSASAPSSSTDITSFLSSDPSSLPKVPVTSSEAKTQGSGPAVTATKKATTSLESFFQKAAERQKVKEASLSSLTAPTQAPMSNSPSKPSLPFQTSQSTGTEPFFKQKSLLLKQKQLNNSSVSSPQQNPWSNCKALPNSLPTEYPGCVPVCEGVSKLEESSKATPAEMDLAHNSQSMHASSASKSVLEVTQKATPNPSLLAAEDQVPCEKCGSLVPVWDMPEHMDYHFALELQKSFLQPHSSNPQVVSAVSHQGKRNPKSPLACTNKRPRPEGMQTLESFFKPLTH
For B5, the localisation_or_trafficking [4] was “increases”.

B6: DNA polymerase η (Polη): 5A (protein)
parent chain: MATGQDRVVALVDMDCFFVQVEQRQNPHLRNKPCAVVQYKSWKGGGIIAVSYEARAFGVTRSMWADDAKKLCPDLLLAQVRESRGKANLTKYREASVEVMEIMSRFAVIERASIDEAYVDLTSAVQERLQKLQGQPISADLLPSTYIEGLPQGPTTAEETVQKEGMRKQGLFQWLDSLQIDNLTSPDLQLTVGAVIVEEMRAAIERETGFQCSAGISHNKVLAKLACGLNKPNRQTLVSHGSVPQLFSQMPIRKIRSLGGKLGASVIEILGIEYMGELTQFTESQLQSHFGEKNGSWLYAMCRGIEHDPVKPRQLPKTIGCSKNFPGKTALATREQVQWWLLQLAQELEERLTKDRNDNDRVATQLVVSIRVQGDKRLSSLRRCCALTRYDAHKMSHDAFTVIKNCNTSGIQTEWSPPLTMLFLCATKFSASAPSSSTDITSFLSSDPSSLPKVPVTSSEAKTQGSGPAVTATKKATTSLESFFQKAAERQKVKEASLSSLTAPTQAPMSNSPSKPSLPFQTSQSTGTEPFFKQKSLLLKQKQLNNSSVSSPQQNPWSNCKALPNSLPTEYPGCVPVCEGVSKLEESSKATPAEMDLAHNSQSMHASSASKSVLEVTQKATPNPSLLAAEDQVPCEKCGSLVPVWDMPEHMDYHFALELQKSFLQPHSSNPQVVSAVSHQGKRNPKSPLACTNKRPRPEGMQTLESFFKPLTH
For B6, the “other: polyubiquitination” value [1] was “decreases”.

B7: DNA polymerase η (Polη): T457E (protein)
parent chain: MATGQDRVVALVDMDCFFVQVEQRQNPHLRNKPCAVVQYKSWKGGGIIAVSYEARAFGVTRSMWADDAKKLCPDLLLAQVRESRGKANLTKYREASVEVMEIMSRFAVIERASIDEAYVDLTSAVQERLQKLQGQPISADLLPSTYIEGLPQGPTTAEETVQKEGMRKQGLFQWLDSLQIDNLTSPDLQLTVGAVIVEEMRAAIERETGFQCSAGISHNKVLAKLACGLNKPNRQTLVSHGSVPQLFSQMPIRKIRSLGGKLGASVIEILGIEYMGELTQFTESQLQSHFGEKNGSWLYAMCRGIEHDPVKPRQLPKTIGCSKNFPGKTALATREQVQWWLLQLAQELEERLTKDRNDNDRVATQLVVSIRVQGDKRLSSLRRCCALTRYDAHKMSHDAFTVIKNCNTSGIQTEWSPPLTMLFLCATKFSASAPSSSTDITSFLSSDPSSLPKVPVTSSEAKTQGSGPAVTATKKATTSLESFFQKAAERQKVKEASLSSLTAPTQAPMSNSPSKPSLPFQTSQSTGTEPFFKQKSLLLKQKQLNNSSVSSPQQNPWSNCKALPNSLPTEYPGCVPVCEGVSKLEESSKATPAEMDLAHNSQSMHASSASKSVLEVTQKATPNPSLLAAEDQVPCEKCGSLVPVWDMPEHMDYHFALELQKSFLQPHSSNPQVVSAVSHQGKRNPKSPLACTNKRPRPEGMQTLESFFKPLTH
For B7, the localisation_or_trafficking [4] was “increases”.

B8: DNA polymerase η (Polη): Polη-5A (protein)
parent chain: MATGQDRVVALVDMDCFFVQVEQRQNPHLRNKPCAVVQYKSWKGGGIIAVSYEARAFGVTRSMWADDAKKLCPDLLLAQVRESRGKANLTKYREASVEVMEIMSRFAVIERASIDEAYVDLTSAVQERLQKLQGQPISADLLPSTYIEGLPQGPTTAEETVQKEGMRKQGLFQWLDSLQIDNLTSPDLQLTVGAVIVEEMRAAIERETGFQCSAGISHNKVLAKLACGLNKPNRQTLVSHGSVPQLFSQMPIRKIRSLGGKLGASVIEILGIEYMGELTQFTESQLQSHFGEKNGSWLYAMCRGIEHDPVKPRQLPKTIGCSKNFPGKTALATREQVQWWLLQLAQELEERLTKDRNDNDRVATQLVVSIRVQGDKRLSSLRRCCALTRYDAHKMSHDAFTVIKNCNTSGIQTEWSPPLTMLFLCATKFSASAPSSSTDITSFLSSDPSSLPKVPVTSSEAKTQGSGPAVTATKKATTSLESFFQKAAERQKVKEASLSSLTAPTQAPMSNSPSKPSLPFQTSQSTGTEPFFKQKSLLLKQKQLNNSSVSSPQQNPWSNCKALPNSLPTEYPGCVPVCEGVSKLEESSKATPAEMDLAHNSQSMHASSASKSVLEVTQKATPNPSLLAAEDQVPCEKCGSLVPVWDMPEHMDYHFALELQKSFLQPHSSNPQVVSAVSHQGKRNPKSPLACTNKRPRPEGMQTLESFFKPLTH
For B8, the localisation_or_trafficking [3] was “no change” and the localisation_or_trafficking [4] was “increases”.
